± gives the standard error. For some assays here: This sample holds only a part of the variants without activity.
B1: glmS ribozyme (parent)
chain: AUAAAAGCGCCAGAACUACAGAAAUGUAGUUGACGAGGAGGAGGUUUAUCGAAUUUUCGGCGGAUGCCUCCAAA

Key:
Conditions in all cases: with glucosamine-6-phosphate
glucosamine-6-phosphate [1] = variants of: B1; experiment: kcat; higher = faster cleavage; RNA array
Summary of the method: (§1)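 Tiles of sequenced MiSeq chips were imaged over ~14 h at 37 °C. On them, barcoded ribozyme variants had been transcribed in situ by E. coli RNA polymerase and were tracked via a hybridised Cy3 probe while glucosamine-6-phosphate (40 μM to 10 mM) in HEPES/KCl/Mg(OAc)2 buffer flowed in. Per-tile medians, normalised to baseline and to non-cleaving reference variants, were fit to one- or two-exponential decays for kobs, and weighted Michaelis–Menten fits gave kcat and KM.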

glucosamine-6-phosphate [2] = variants of: B1; experiment: KM; higher = weaker cofactor use; RNA array
Summary of the method: as §1

glucosamine-6-phosphate [3] = variants of: B1; experiment: self-cleavage kobs at 160 uM GlcN6P; higher = faster cleavage; RNA array
Summary of the method: as §1

glucosamine-6-phosphate [4] = variants of: B1; experiment: self-cleavage kobs at 640 uM GlcN6P; higher = faster cleavage; RNA array
Summary of the method: as §1

glucosamine-6-phosphate [5] = variants of: B1; experiment: self-cleavage kobs at 2500 uM GlcN6P; higher = faster cleavage; RNA array
Summary of the method: as §1

glucosamine-6-phosphate [6] = variants of: B1; experiment: self-cleavage kobs at 10000 uM GlcN6P; higher = faster cleavage; RNA array
Summary of the method: as §1

glucosamine-6-phosphate [7] = variants of: B1; experiment: self-cleavage kobs at 40 uM GlcN6P; higher = faster cleavage; RNA array
Summary of the method: as §1

Variant	kcat (glucosamine-6-phosphate [1])	KM (glucosamine-6-phosphate [2])	self-cleavage kobs at 160 uM GlcN6P (glucosamine-6-phosphate [3])	self-cleavage kobs at 640 uM GlcN6P (glucosamine-6-phosphate [4])	self-cleavage kobs at 2500 uM GlcN6P (glucosamine-6-phosphate [5])	self-cleavage kobs at 10000 uM GlcN6P (glucosamine-6-phosphate [6])	self-cleavage kobs at 40 uM GlcN6P (glucosamine-6-phosphate [7])
AUAAAAGCGCCAGAAGUACAGAAAUGUAGUUGACGAGGAGGAGGUUGAUCGAAUUUUCGGCGGAUGCCUCCAAA [C16G U47G]	0.000729 ± 0.00014 s⁻¹	1210 ± 400 µM	7.03e-05 ± 1.6e-05 s⁻¹	0.000307 ± 4.8e-05 s⁻¹	0.000604 ± 0.0001 s⁻¹	0.000565 ± 0.0001 s⁻¹	–
AUAAAAGCGCCAGAAGUACAGAAAUGUAGUUGACGAGGAGGAGGUUAAUCGAAUUUUCGGCGGAUGCCUCCAAA [C16G U47A]	0.00274 ± 0.00078 s⁻¹	1710 ± 700 µM	0.00027 ± 3.9e-05 s⁻¹	0.000755 ± 0.00013 s⁻¹	0.00124 ± 0.0002 s⁻¹	0.00329 ± 0.00047 s⁻¹	6.21e-05 ± 9.9e-06 s⁻¹
AUAAAAGCGCCAGAAGUACAGAAAUGUAGUUGACGAGGAGGAGGUUUAUCGAAUAUUCGGCGGAUGCCUCCAAA [C16G U55A]	0.00566 ± 0.0022 s⁻¹	–	0.000313 ± 6.3e-05 s⁻¹	0.000819 ± 0.00014 s⁻¹	0.00327 ± 0.00047 s⁻¹	0.00463 ± 0.00062 s⁻¹	0.00015 ± 1.9e-05 s⁻¹
AUAAAAGCGCCAGAAGUACAGAAAUGUAGUUGACGAGGAGGAGGUUUAUCGAAUCUUCGGCGGAUGCCUCCAAA [C16G U55C]	0.00146 ± 0.00056 s⁻¹	–	0.000158 ± 7.7e-05 s⁻¹	0.000574 ± 8.2e-05 s⁻¹	0.000702 ± 0.00013 s⁻¹	0.00213 ± 0.00033 s⁻¹	4.65e-05 ± 1.3e-05 s⁻¹
AUAAAAGCGCCAGAAGUACAGAAAUGUAGGUGACGAGGAGGAGGUUUAUCGAAUUUUCGGCGGAUGCCUCCAAA [C16G U30G]	0.000352 ± 3e-05 s⁻¹	4110 ± 700 µM	–	4.35e-05 ± 1.3e-05 s⁻¹	0.000146 ± 2.8e-05 s⁻¹	0.000246 ± 3.2e-05 s⁻¹	–
AUAAAAGCGCCAGAAGUACAGAAAUGUAGUUGACGAGGAGGAGGUUUAUCGAAUUCUCGGCGGAUGCCUCCAAA [C16G U56C]	0.000431 ± 6.4e-05 s⁻¹	–	–	–	0.000276 ± 4.5e-05 s⁻¹	0.000354 ± 3.8e-05 s⁻¹	–
AUAAAAGCGCCAGAAGUACAGAAAUGUAGUUGACGAGGAGGAGGUCUAUCGAAUUUUCGGCGGAUGCCUCCAAA [C16G U46C]	0.000353 ± 5e-05 s⁻¹	2310 ± 630 µM	–	8.24e-05 ± 2.7e-05 s⁻¹	0.000169 ± 3.5e-05 s⁻¹	0.00032 ± 9e-05 s⁻¹	–
AUAAAAGCGCCAGAAGUACAGAAAUGUAGUGGACGAGGAGGAGGUUUAUCGAAUUUUCGGCGGAUGCCUCCAAA [C16G U31G]	0.000843 ± 0.00018 s⁻¹	2360 ± 940 µM	4.98e-05 ± 1.6e-05 s⁻¹	0.000186 ± 4.5e-05 s⁻¹	0.000366 ± 0.0001 s⁻¹	0.00071 ± 0.0001 s⁻¹	4.37e-05 ± 1.7e-05 s⁻¹
AUAAAAGCGCCAGAAGUACAGAAAUGUAGUCGACGAGGAGGAGGUUUAUCGAAUUUUCGGCGGAUGCCUCCAAA [C16G U31C]	0.000606 ± 0.00011 s⁻¹	3720 ± 980 µM	–	8.88e-05 ± 1.7e-05 s⁻¹	0.000269 ± 4.6e-05 s⁻¹	0.000401 ± 0.00011 s⁻¹	–
AUAAAAGCGCCAGAAUUACAGAAAUGUAGUUGACGAGGAGGAGGUUUAUCGAAUUUUCGGCGGAUGCCUCCAAA [C16U]	0.0542 ± 0.005 s⁻¹	2230 ± 230 µM	0.00308 ± 0.0002 s⁻¹	0.0121 ± 0.00055 s⁻¹	0.0272 ± 0.0015 s⁻¹	0.0458 ± 0.0022 s⁻¹	0.000969 ± 1.7e-05 s⁻¹
AUAAAAGCGCCAGAAUUACAGAAAUGUAGUUGUCGAGGAGGAGGUUUAUCGAAUUUUCGGCGGAUGCCUCCAAA [C16U A33U]	0.000109 ± 1.2e-05 s⁻¹	2420 ± 740 µM	–	3.18e-05 ± 8.4e-06 s⁻¹	5.09e-05 ± 6.2e-06 s⁻¹	8.92e-05 ± 7.1e-06 s⁻¹	–
AUAAAAGCGCCAGAAGUACAGAAAUGUAGUUGACGAGGAGGAGGGUUAUCGAAUUUUCGGCGGAUGCCUCCAAA [C16G U45G]	0.000908 ± 7.3e-05 s⁻¹	2510 ± 380 µM	4.29e-05 ± 1.9e-05 s⁻¹	0.000199 ± 3.8e-05 s⁻¹	0.000466 ± 0.00011 s⁻¹	0.000718 ± 9.7e-05 s⁻¹	–
AUAAAAGCGCCAGAAUUACAGAAAUGUAGUUGACGUGGAGGAGGUUUAUCGAAUUUUCGGCGGAUGCCUCCAAA [C16U A36U]	< 1e-05 s⁻¹	–	–	–	–	–	–
AUAAAAGCGCCAGAAGUACAGAAAUGUAGUUGACGAGGAGGAGGUUUAUCGAAUUUUCGGCGGAAGCCUCCAAA [C16G U65A]	0.000589 ± 6.3e-05 s⁻¹	3010 ± 580 µM	–	0.000107 ± 1.4e-05 s⁻¹	0.00027 ± 6.5e-05 s⁻¹	0.00045 ± 4.9e-05 s⁻¹	–

— the supplement of paper PMC7125110
